Assay results as given in patent publication US20230391867A1 (SHENZHEN ENDURING BIOTECH, published 2023).

Columns and labels:
[1] = biological target: T1, Human CD47 Protein, Fc Tag (HPLC verified; Acro, cat:CD7-H5256-100ug) (human, UniProt Q08722 19-139); assay: ELISA, plate coated with human CD47 Fc Tag protein, anti-SCACD3 detection
T1 construct: Bought Fc-tagged CD47 coated on the ELISA plate; not shown: Fc tag

[2] = biological target: T2, CD47 on human cells (red blood cells from healthy human donors; BxPC3; ZR-75-1) (human, UniProt Q08722 19-323); assay: flow cytometry, JY102-Alexa Fluor 488 at 10 ug/ml, % stained BxPC3 cells against % stained RBCs
T2 construct: whole, on cells; also called target cells expressing CD47; CD47 expressing cells
Description: Again, RBC cells from healthy human donors or cultured BxPC3 cells were collected and resuspended to a concentration of approximately 5×10⁶ cells/ml in ice cold PBS, 3% BSA. 100 μl of cell suspension was used for each binding reaction and incubated with indicated doses of JY102-Alexa Fluor 488 for at least 30 min at room temperature (or 4° C. for the assay in panel C) in the dark. Then cells were washed 3 times by centrifugation at 400 g for 5 min and resuspended in ice cold PBS, 3% BSA. Each sample was subjected to flow cytometry analysis.

[3] = biological target: T2, CD47 on human cells (red blood cells …); assay: cell-based or functional assay

T2 sequence (Q08722 19-323): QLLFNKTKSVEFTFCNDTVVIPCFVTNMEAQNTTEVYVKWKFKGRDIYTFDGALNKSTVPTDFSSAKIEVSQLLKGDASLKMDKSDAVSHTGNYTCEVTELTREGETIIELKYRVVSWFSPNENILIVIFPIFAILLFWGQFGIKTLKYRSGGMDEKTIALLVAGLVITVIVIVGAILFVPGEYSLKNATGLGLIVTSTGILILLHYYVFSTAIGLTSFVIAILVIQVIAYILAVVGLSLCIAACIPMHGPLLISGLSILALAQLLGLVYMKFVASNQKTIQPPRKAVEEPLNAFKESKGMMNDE
T1 sequence (Q08722 19-139 limits assumed): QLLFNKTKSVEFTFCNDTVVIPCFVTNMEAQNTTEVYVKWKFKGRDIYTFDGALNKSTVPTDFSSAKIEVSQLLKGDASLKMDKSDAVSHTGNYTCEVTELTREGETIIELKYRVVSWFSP

B1: JY102 (30kmPEG-(SCACD3)SCACD47) (bispecific antibody)
scFv 1: not shown
scFv 2: DIVMTQSPLSLPVTPGEPASISCRSSQSIVYSNGNTYLGWYLQKPGQSPQLLIYKVSNRFSGVPDRFSGSGSGTDFTLKISRVEAEDVGVYYCFQGSHVPYTFGQGTKLEIKGGCSGGSGGSGGSGGQVQLVQSGAEVKKPGASVKVSCKASGYTFTNYNMHWVRQAPGQRLEWMGTIYPGNDDTSYNQKFKDRVTITADTSASTAYMELSSLRSEDTAVYYCARGGYRAMDYWGQGTLVTVSS
modifications: free thiol (Cys) in the VL-VH linker is conjugated to Azide-PEG10-Maleimide; the azide is clicked to the DBCO of 30kmPEG-Lys(SCACD3)-DBCO; free thiol (Cys) genetically inserted in the VH-VL linker is conjugated to the maleimide of 30kmPEG-Lys(maleimide)-DBCO
notes: also called Compound 12; compound 12
EC50 [1]: 0.187 µg/mL | fold difference in binding (BxPC3 cells against RBCs) [2]: 40 fold | EC50 of T cell mediated cytotoxicity (MTS assay, expanded T cells, E:T 5:1, 24 h) to ZR75-1 [3]: 0.111 µg/mL
